Reference: paper PMC4822561, “Structure of a quinolone-stabilized cleavage complex of topoisomerase IV from Klebsiella pneumoniae and comparison with a related Streptococcus pneumoniae complex” (Acta Crystallographica. Section D, Structural Biology, 2016)

B1: S. pneumoniae topoisomerase IV ParC55 (domain or fragment)
chain: MSNIQNMSLEDIMGERFGRYSKYIIQDRALPDIRDGLKPVQRRILYSMNKDSNTFDKSYRKSAKSVGNIMGNFHPHGDSSIYDAMVRMSQNWKNREILVEMHGNNGSMDGDPPAAMRYTEARLSEIAGYLLQDIEKKTVPFAWNFDDTEKEPTVLPAAFPNLLVNGSTGISAGYATDIPPHNLAEVIDAAVYMIDHPTAKIDKLMEFLPGPDFPTGAIIQGRDEIKKAYETGKGRVVVRSKTEIEKLKGGKEQIVITEIPYEINKANLVKKIDDVRVNNKVAGIAEVRDESDRDGLRIAIELKKDANTELVLNYLFKYTDLQINYNFNMVAIDNFTPRQVGIVPILSSYIAHRREVILARSRFDKEKAEKRLHIVEGLIRVISILDEVIALIRASENKADAKENLKVSYDFTEEQAEAIVTLQLYRLTNTDVVVLQEEEAELREKIAMLAAIIGDERTMYNLMKKELREVKKKFATPRLSSLEDTAKALE
notes: ParC breakage-reunion domain (ParC55), S. pneumoniae isolate 7785 (St George's Hospital); two residues between ParC and the His6 tag; also called ParC N-terminal domain; ParC subunit; source: E. coli BL21(λDE3) pLysS, pET-29a (C-terminal His6); purification protocol in the Supporting Information
B2: K. pneumoniae topoisomerase IV ParC breakage-reunion domain (ParC55; residues 1–490) (domain or fragment, K. pneumoniae (strain ATCC 35657))
chain: MSDMAERLALHEFTENAYLNYSMYVIMDRALPFIGDGLKPVQRRIVYAMSELGLNASAKFKKSARTVGDVLGKYHPHGDSACYEAMVLMAQPFSYRYPLGDGQGNWGAPDDPKSFAAMRYTESRLSKYAELLLSELGQGTVDWVPNFDGTLQEPKMLPARLPNILLNGTTGIAVGMATDIPPHNLREVAKAAITLIEQPKTTLDELLDIVQGPDFPTEAEIITSRAEIRKIYQNGRGSVRMRAVWSKEDGAVVITALPHQVSGAKVLEQIAAQMRNKKLPMVDDLRDESDHENPTRLVIVPRSNRVDMEQVMNHLFATTDLEKSYRINLNMIGLDGRPAVKNLLEILSEWLVFRRDTVRRRLNHRLEKVLKRLHILEGLLVAFLNIDEVIEIIRTEDEPKPALMSRFGISETQAEAILELKLRHLAKLEEMKIRGEQSELEKERDQLQAILASERKMNNLLKKELQADADAFGDDRRSPLHEREEAKAMS
notes: ParC breakage-reunion domain (ParC55), K. pneumoniae strain ATCC 35657, residues 1-490; In the crystal this stretch was joined on one chain with ParE 390-631 (see m1: M-ParE(390-631)-EF-ParC(1-490)-His6); written alone for the pair rows; also called ParC NTD 1–490; ParC subunit; source: E. coli BL21(λDE3) pLysS, pET-29a; purification protocol in the Supporting Information
B3: S. pneumoniae topoisomerase IV ParE30 (domain or fragment)
chain: KNKKDKGLLSGKLTPAQSKNPAKNELYLVEGDSAGGSAKQGRDRKFQAILPLRGKVINTAKAKMADILKNEEINTMIYTIGAGVGADFSIEDANYDKIIIMTDADTDGAHIQTLLLTFFYRYMRPLVEAGHVYIALPPLYKMSKGKGKKEEVAYAWTDGELEELRKQFGKGATLQRYKGLGEMNADQLWETTMNPETRTLIRVTIEDLARAERRVNVLMGDKVEPRRKWIEDNVKFTLEEATVF
notes: ParE TOPRIM domain (ParE30), S. pneumoniae isolate 7785 (St George's Hospital); the limits fit the printed Glu474 and Glu475; also called ParE C-terminal domain; ParE TOPRIM domain; source: E. coli BL21(λDE3) pLysS, pET-19b (N-terminal His10); purification protocol in the Supporting Information

Assays:
[1] = biological target: the molecule itself; experiment: crystal structure; S. pneumoniae ParC55:ParE30:18-mer E-site DNA 1:1:1.2 at 4 mg/ml, 2 mM levofloxacin, 10 mM MgCl2; capillary counter-diffusion, 304 K; 2.9 Å, space group P3(1)21
[2] = biological target: the molecule itself; experiment: crystal structure; K. pneumoniae ParE-ParC fusion (4.5 mg/ml) co-crystallised with pre-cut 34-mer E-site DNA (1:1.2 protein:DNA), 2 mM levofloxacin, 10 mM MgCl2; vapour diffusion, 298 K; 3.35 Å, space group P2(1)
[3] = biological target: B1; experiment: crystal structure; S. pneumoniae ParC55:ParE30:18-mer E-site DNA 1:1:1.2 at 4 mg/ml, 2 mM levofloxacin, 10 mM MgCl2; capillary counter-diffusion, 304 K; 2.9 Å, space group P3(1)21; conditions: both partners purified

B1
binding result [1]: binds

B2
stoichiometry N [2]: 2

B3
binding result [3]: binds
